In publication PMC8860598:
Substitutions are numbered along the chain they refer to. Where two headings read alike, the source gives them in different places.

How the values were obtained:
Assay in all cases: EMSA
[1] = biological target: T1, Sen1 HD wt (Saccharomyces cerevisiae, UniProt Q00416 1095-1905)
T1 sequence: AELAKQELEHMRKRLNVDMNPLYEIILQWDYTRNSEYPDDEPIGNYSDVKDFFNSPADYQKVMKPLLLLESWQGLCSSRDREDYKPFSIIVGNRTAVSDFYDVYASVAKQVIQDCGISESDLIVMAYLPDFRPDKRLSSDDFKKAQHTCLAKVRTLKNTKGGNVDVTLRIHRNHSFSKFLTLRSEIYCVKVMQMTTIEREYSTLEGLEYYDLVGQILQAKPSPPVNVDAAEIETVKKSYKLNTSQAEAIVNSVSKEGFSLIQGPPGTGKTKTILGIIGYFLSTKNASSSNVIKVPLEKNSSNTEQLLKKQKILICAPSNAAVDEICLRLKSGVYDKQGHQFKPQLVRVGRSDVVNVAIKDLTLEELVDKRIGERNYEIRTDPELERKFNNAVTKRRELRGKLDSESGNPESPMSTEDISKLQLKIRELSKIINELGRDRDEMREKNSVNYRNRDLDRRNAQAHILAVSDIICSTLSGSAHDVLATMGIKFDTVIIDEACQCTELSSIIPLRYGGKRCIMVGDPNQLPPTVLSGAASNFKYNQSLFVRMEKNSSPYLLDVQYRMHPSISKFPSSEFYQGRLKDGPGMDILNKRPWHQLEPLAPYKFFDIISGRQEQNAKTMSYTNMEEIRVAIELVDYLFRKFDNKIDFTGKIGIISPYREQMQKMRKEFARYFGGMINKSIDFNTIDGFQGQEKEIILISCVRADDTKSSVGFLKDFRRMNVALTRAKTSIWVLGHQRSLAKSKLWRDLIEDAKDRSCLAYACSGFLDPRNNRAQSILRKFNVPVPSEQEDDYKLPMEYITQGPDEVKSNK

[2] = biological target: T2, Sen1 HD T1623V (Saccharomyces cerevisiae, UniProt Q00416 1095-1905, T1623V)
T2 sequence: T1 sequence with T529V

[3] = biological target: T1, Sen1 HD wt; remark: listed apart in the source
[4] = biological target: T3, Sen1 HD T1623E (Saccharomyces cerevisiae, UniProt Q00416 1095-1905, T1623E)
T3 sequence: T1 sequence with T529E

[5] = biological target: T2, Sen1 HD T1623V; remark: listed apart in the source

B1: DL3508 (called 40-mer RNA; printed sequence is 44 nt) (ssRNA)
RNA: UUCAUUUCAGACCAGCACCCACUCACUACAACUCACGACCAGGC
For B1, the Kd [1] was 6.4 nM, the Kd [2] was 8.1 nM and the Kd [3] was 13.1 nM. For the same binder, the Kd [4] was 100 nM and the Kd [5] was 12.7 nM.
